Reference: patent US20110217338A1

Experiments:
[1] = target: IgG b12, broadly neutralizing anti-HIV-1 gp120 antibody; assay: SPR, Biacore 2000, 25 C, IgG b12 immobilized on CM5 chip (900 RU)
[2] = target: b122a displayed on the surface of yeast EBY100; assay: flow cytometry of yeast EBY100 displaying b122a, b12 detected with anti-human-PE

Wt gp120 (full-length HIV-1 gp120) showed a Kd [1] of 17 nM.
Substance Core gp120 has a Kd [1] of 22 nM.
For “IgG b12, broadly neutralizing anti-HIV-1 gp120 antibody”, the concentration of b12 which showed appreciable binding [2] was 9 µM.
